Results on two substances are retold here after patent US20060142201A1.

In experiment [1] the target is human noradrenaline transporter (hNET) (human) (UniProt P23975). The experiment is described as follows: cell-based or functional assay.
The target is the same in experiment [2].

Sequence of human noradrenaline transporter (hNET) (human) (P23975 whole entry): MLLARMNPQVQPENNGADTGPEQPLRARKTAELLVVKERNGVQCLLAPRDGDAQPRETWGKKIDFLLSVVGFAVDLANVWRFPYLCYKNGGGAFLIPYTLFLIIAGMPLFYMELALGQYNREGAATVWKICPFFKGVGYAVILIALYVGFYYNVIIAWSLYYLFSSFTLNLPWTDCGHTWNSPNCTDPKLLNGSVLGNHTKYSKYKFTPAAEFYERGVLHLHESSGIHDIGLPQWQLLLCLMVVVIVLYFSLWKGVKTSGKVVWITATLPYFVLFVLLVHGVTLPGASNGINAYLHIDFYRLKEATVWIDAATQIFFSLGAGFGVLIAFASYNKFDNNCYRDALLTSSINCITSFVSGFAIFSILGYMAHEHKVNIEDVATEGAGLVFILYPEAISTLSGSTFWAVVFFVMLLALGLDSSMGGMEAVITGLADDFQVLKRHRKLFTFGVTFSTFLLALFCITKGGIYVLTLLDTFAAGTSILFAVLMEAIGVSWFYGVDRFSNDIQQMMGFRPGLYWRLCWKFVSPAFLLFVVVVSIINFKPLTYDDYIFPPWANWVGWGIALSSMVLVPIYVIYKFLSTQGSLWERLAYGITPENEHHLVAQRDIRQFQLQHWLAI

Consider χ-MrIA (SEQ ID NO. 1) (peptide), for which the Ay log IC50 for inhibition of 3H-NA through hNET in experiment [1] was -6.3 log M.
Turning to “χ-MrIA (SEQ ID NO. 1) (peptide; other documents disagree on this pair)”, in experiment [2], the Ay log IC50 for displacement of 3H-nisoxetine from hNET was -5.14 log M.
